# Changes are numbered by the printed parent chain. Names and notes keep the numbering of the source.
# B1: N126M: mutated TriA variant of SEQ ID NO: 2 (protein)
# chain: MQTLSIQHGTLVTMDQYRRVLGDSWVHVQDGRIVALGVHAESVPPPADRVIDARGKVVLPGFINAHTHVNQILLRGGPSHGRQLYDWLFNVLYPGQKAMRPEDVAVAVRLYCAEAVRSGITTINDMADSAIYPGNIEAAMAVYGEVGVRVVYARMFFDRMDGRIQGYVDALKARSPQVELCSIMEETAVAKDRITALSDQYHGTAGGRISVWPAPAITPAVTVEGMRWAQAFARDRAVMWTLHMAESDHDERLHWMSPAEYMECYGLLDERLQVAHCVYFDRKDVRLLHRHNVKVASQVVSNAYLGSGVAPVPEMVERGMAVGIGTDDGNCNDSVNMIGDMKFMAHIHRAVHRDADVLTPEKILEMATIDGARSLGMDHEIGSIETGKRADLILLDLRHPQTTPHHHLAATIVFQAYGNEVDTVLIDGNVVMENRRLSFLPPERELAFLEEAQSRATAILQRANMVANPAWRSL
# modifications: Pseudomonas
# B2: N126S: mutated TriA variant of SEQ ID NO: 2 (protein)
# chain: B1 chain with M126S
# modifications: Pseudomonas
# B3: N126D: mutated TriA variant of SEQ ID NO: 2 (protein)
# chain: B1 chain with M126D
# modifications: Pseudomonas
# B4: D128S: mutated TriA variant of SEQ ID NO: 2 (protein)
# chain: B1 chain with M126N, D128S
# modifications: Pseudomonas
# B5: D128A: mutated TriA variant of SEQ ID NO: 2 (protein)
# chain: B1 chain with M126N, D128A
# modifications: Pseudomonas
# B6: D128N: mutated TriA variant of SEQ ID NO: 2 (protein)
# chain: B1 chain with M126N, D128N
# modifications: Pseudomonas
# B7: M155G: mutated TriA variant of SEQ ID NO: 2 (protein)
# chain: B1 chain with M126N, M155G
# modifications: Pseudomonas
# B8: M155A: mutated TriA variant of SEQ ID NO: 2 (protein)
# chain: B1 chain with M126N, M155A
# modifications: Pseudomonas
# B9: M155E: mutated TriA variant of SEQ ID NO: 2 (protein)
# chain: B1 chain with M126N, M155E
# modifications: Pseudomonas
# B10: F157M: mutated TriA variant of SEQ ID NO: 2 (protein)
# chain: B1 chain with M126N, F157M
# modifications: Pseudomonas
# Format: biochemical
# Details: pH 7.2
# In short: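 Expression: BL21(DE3) Gold, pET24d N-His, pGro7, 0.1 mM IPTG, 25° C, 20 h. Reaction: 25 mM Na phosphate pH 7.2, substrate 1 nM to 10 nM, 30° C. Analysis: UPLC-HR-MS; % degradation vs empty vector.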
Molecule,"Degradation in % of 6-cyclopentyl-N4-(2,3,4,5,6-pentafluorophenyl)-1,3,5-triazine-2,4-diamine [%]",Degradation in % of Melamine [%]
B1,0,3
B2,1,2
B3,0,0
B4,0,0
B5,5,3
B6,2,0
B7,0,4
B8,4,0
B9,0,0
B10,0,17
